Here are results for two substances from paper PMC4759192.

In experiment [1] the target is complex I (NADH dehydrogenase) (bovine (endogenous in bovine heart)). The experiment in a line: absorption spectroscopy of the co-purified supercomplex; concentrations of b-type and c-type cytochromes (redox difference spectra) and of complex IV (reduced form) in eight supercomplex samples, room temperature, HEPES-Na pH 7.8 with sucrose.
Experiment [2] deals with complex IV (cytochrome c oxidase) (bovine (endogenous in bovine heart)). The experiment in a line: native gel or EMSA; BN-PAGE of bovine heart mitochondria solubilized with digitonin. A general note: Mobility shift assays separate free from complexed probe on a gel.
Experiment [3] has the same target. Nature of the experiment: absorption spectroscopy of the co-purified supercomplex; concentrations of b-type and c-type cytochromes (redox difference spectra) and of complex IV (reduced form) in eight supercomplex samples, room temperature, HEPES-Na pH 7.8 with sucrose.
Experiment [4] concerns the target complex III (cytochrome c reductase/cytochrome bc1 complex) (bovine (endogenous in bovine heart)) (UniProt P00157). Nature of the experiment: co-sedimentation + native gel or EMSA; crystalline complex III exchanged into amphipol, stepwise sucrose gradient 0.8-1.2 M in HEPES-Na pH 7.8, 105,000 x g, 15 h, 4 C; fractions by BN-PAGE.

The substance complex IV (cytochrome c oxidase) came in with a stoichiometry N (complex IV per complex I) in experiment [1] of 1. Besides, the stoichiometry N (in general, the number of molecules, sites or subunits per partner or assembly) in experiment [2] amounted to 2.

The substance “complex III (cytochrome c reductase/cytochrome bc1 complex) (from UniProt P00157 1-379; P00125 85-325)” yielded a stoichiometry N (complex III per complex I) in experiment [1] of 2. In addition, in experiment [3], the ratio b-type cytochrome/complex IV1 (average) (b-type cytochrome per complex IV monomer) stood at 3.88, the ratio c-type cytochrome/complex IV1 (average) (c-type cytochrome per complex IV monomer) was found to be 2.2 and the stoichiometry N (complex III per complex IV) is 2. Moreover, in experiment [4], the stoichiometry N was 2.
